Measured values published in the RNAGym collection of RNA variant scans (doi:10.7554/elife.80360).

B1: Hairpin Ribozyme (parent)
chain: GUCCUCUUUCACGUGCGCGUGAAAGAGAGAAGUGAACCAGAGAAACACACGUUGUGGUAUAUUACCUGGUA

Variants of: B1
Experiment: self-cleavage, relative activity (ratio to wild type); higher = more cleavage; co-transcriptional

| Variant | self-cleavage |
| --- | --- |
| A23G A45G | 0.175 |
| A23G A45U | 0.143 |
| A23G A47C | 0.3 |
| A23G A47G | 0.171 |
| A23G A47U | 0.151 |
| A23G A49U | 0.227 |
| A23G A59U | 0.0772 |
| A23G A61C | 0.266 |
| A23G A61G | 0.136 |
| A23G A64G | 0.43 |
| A23G A64U | 0.125 |
| A23G A71C | 1.37 |
| A23G C38A | 0.239 |
| A23G C38U | 0.43 |
| A23G C46U | 0.0862 |
| A23G C48A | 0.123 |
| A23G C48G | 0.159 |
| A23G C50A | 0.218 |
| A23G C65A | 0.667 |
| A23G C66A | 0.246 |
| A23G C66G | 0.265 |

| Variant | self-cleavage |
| --- | --- |
| A23G G27A | 0.496 |
| A23G G29U | 0.164 |
| A23G G32A | 0.0936 |
| A23G G34A | 1.12 |
| A23G G40A | 0.234 |
| A23G G40U | 0.278 |
| A23G G42A | 0.192 |
| A23G G42U | 0.359 |
| A23G G57A | 0.19 |
| A23G G57C | 0.177 |
| A23G G69U | 0.148 |
| A23G U33A | 0.131 |
| A23G U33G | 0.125 |
| A23G U53A | 0.727 |
| A23G U55A | 0.273 |
| A23G U55C | 0.322 |
| A23G U58G | 0.657 |
| A23G U62A | 0.116 |
| A23G U63A | 0.113 |
| A23G U67A | 0.105 |
| A23G U67C | 0.218 |

| Variant | self-cleavage |
| --- | --- |
| A23G U70G | 0.759 |
| A23U A24G | 0.587 |
| A23U A26C | 0.545 |
| A23U A26U | 0.606 |
| A23U A28C | 0.613 |
| A23U A28U | 0.674 |
| A23U A30C | 0.201 |
| A23U A30G | 0.228 |
| A23U A31U | 0.166 |
| A23U A35U | 0.754 |
| A23U A39C | 0.483 |
| A23U A41U | 1.07 |
| A23U A43U | 0.123 |
| A23U A44G | 0.248 |
| A23U A44U | 0.15 |
| A23U A45G | 0.129 |
| A23U A47G | 0.11 |
| A23U A47U | 0.105 |
| A23U A49G | 0.356 |
| A23U A59G | 0.183 |
| A23U A71U | 0.66 |

| Variant | self-cleavage |
| --- | --- |
| A23U C37G | 0.438 |
| A23U C46U | 0.131 |
| A23U C48U | 0.118 |
| A23U C50A | 0.277 |
| A23U C50G | 0.239 |
| A23U C65A | 0.752 |
| A23U C65U | 0.402 |
| A23U G25A | 0.186 |
| A23U G25C | 0.132 |
| A23U G25U | 0.216 |
| A23U G27A | 0.394 |
| A23U G29C | 0.145 |
| A23U G34C | 1.12 |
| A23U G40A | 0.309 |
| A23U G42C | 0.259 |
| A23U G42U | 0.246 |
| A23U G51U | 0.893 |
| A23U G54C | 0.551 |
| A23U G54U | 0.538 |
| A23U G56C | 0.174 |
| A23U G57A | 0.116 |
